Where a chain is given by its changes, count along the chain named.
T1: hGCGR-mmh (human)
T1 construct: also called REGN547; monovalent hGCGR
T1 chain: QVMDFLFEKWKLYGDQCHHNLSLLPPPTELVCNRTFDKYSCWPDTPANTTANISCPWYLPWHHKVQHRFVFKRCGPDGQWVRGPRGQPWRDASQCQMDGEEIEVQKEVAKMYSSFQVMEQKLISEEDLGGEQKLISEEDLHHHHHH

T2: monkey (Macaca fascicularis) GCGR (full-length, on HEK293 reporter cells) (monkey (Macaca fascicularis), UniProt P47871 26-477 (human entry))
T2 chain: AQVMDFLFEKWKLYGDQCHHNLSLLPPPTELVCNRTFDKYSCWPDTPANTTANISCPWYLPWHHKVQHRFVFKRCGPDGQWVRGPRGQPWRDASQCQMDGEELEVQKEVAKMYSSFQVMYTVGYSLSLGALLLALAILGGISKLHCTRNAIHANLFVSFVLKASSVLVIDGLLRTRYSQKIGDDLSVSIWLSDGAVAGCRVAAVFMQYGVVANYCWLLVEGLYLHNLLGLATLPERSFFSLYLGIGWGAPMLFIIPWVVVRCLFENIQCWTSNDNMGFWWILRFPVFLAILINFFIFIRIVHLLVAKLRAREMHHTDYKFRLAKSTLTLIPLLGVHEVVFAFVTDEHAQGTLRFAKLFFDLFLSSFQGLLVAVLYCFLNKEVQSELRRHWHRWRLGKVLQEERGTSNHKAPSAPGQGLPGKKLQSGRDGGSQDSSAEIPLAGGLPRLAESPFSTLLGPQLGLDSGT

B1: H4H1327P (antibody, V domains shown)
VH: EVQLVESGGGLVQPGGSLRLSCAASGFTFSNYLMNWVRQAPGKGLEWLANIQEDGIEKYYVDSVKGRFTISRDNAKNSLYLQMNSLRAEDTAVYYCAREPSHYDILTGYDYYYGMDVWGQGTTVTVS
VL: DIQMTQSPSSLSASVGDRVTITCRASQGIRNDLGWYQQKPGKAPKRLIYAASSLQSGVPSRFSGSGSGTEFILTVSSLQPEDFATYYCLQYNSNPFTFGPGTKVDIK
notes: also called anti-GCGR (hIgG4) antibody designated H4H1327P
B2: H4H1328P (antibody, V domains shown)
VH: EVQLVESGGALVQPGGSLRLSCTASGFTFSNYDMHWVRQTTGKGLEWISAIDTAGDTYYPGSVKGRFTVSRENAKNSFYLQMNSLRAGDTAVYYCAREGKYYDILTGDYHYYGMDVWGQGTTVTVS
VL: B1 VL with A51T, I72T, V75I, Y91H, N94Y, F96L, P100G, V104L, D105E
notes: Fully human anti-GCGR antibody; the controls are called isotype-matched hIgG4
B3: H4H1331P (antibody, V domains shown)
VH: QVQLVESGGGVVQPGRSLRLSCAASGFTFSNFGMHWVRQAPGKGLEWVAVIWFDEIDKYYADSVKGRFTISRDNSKNTLYPQMNSLRAEDTAVYYCAREDYDILTGYYYAMDVWGQGTTVTVS
VL: DIQMTQSPSSLSASVGDRVTITCRASQGIKNDLGWYQQKPGKAPKRLIYAASRLQSGVPSRFSGSGSGTEFTLTISSLQPEDFGTYYCLQHNSHPTFGQGTKVEIK
notes: as for B2
B4: H4H1339P (antibody, V domains shown)
VH: EVQLVESGGGMVQPGGSLRLSCAASGFTSSNYDMHWVRQATGKGLEWVSSIDTAGDTYYPDSVKGRFIISRENAKNSLYLQMNSLRAGDTAVYYCTREPRNYEILTGHYHYHGMDIWGQGTTVTVS
VL: AIQMTQSPSSLSASVGDRVTITCRASQAIRNDLGWYQQKPGKAPKLLIYTAFSLQSGVPSRFSGSKSGTDFTLTISSLQPEDFATYYCLQDYTNPRTFGQGTKVEIK
notes: as for B2
B5: H4H1321P (antibody, V domains shown)
VH: QVQLVESGGGVVQPGRSLRLSCAASGFTFSSYDMHWVRQAPGKGLEWVAVISSDGRDKYYVDSVKGRFTISRDNSKNTLYLQMNSLRAEDTAVYYCAKEMVYYDILTGYHNYYGMDVWGQGTTVTVS
VL: DIQMTQSPSSLSASVGDRVTITCRASQGINNYLAWFQQKPGKAPKSLIHTASSLQSGVPSKFSGSGSGTDFTLTISSLQPEDFATYYCQQYNTYPLTFGGGTKVEIK
notes: as for B2

Tests used:
hGCGR-hFc [1] = molecular target: T3, hGCGR-hFc (human); test: SPR Biacore T100, 25C, mAb captured, antigen flowed
T3 construct: also called REGN316
Protocol: (§1) Measurements were conducted on a T100 Biacore instrument. Antibodies were captured onto the Biacore sensor chip surface via a covalently-linked anti-human kappa antibody capture surface, and the soluble GCGR proteins were applied to the surface either in a monovalent (hGCGR expressed with a myc-myc-hexa-histidine C-terminal tag) or bivalent (hGCGR and MfGCGR expressed with an N-terminal Fc fusion) format.
(§2) Binding dissociation equilibrium constants and dissociative half-lives were calculated from the kinetic rate constants as: KD=kd/kₐ; t_{1/2}=(In2/kd).

hGCGR-mmh [2] = molecular target: T1, hGCGR-mmh; test: as above
Protocol: as §1, §2

mfGCGR-hFc [3] = molecular target: T4, mfGCGR-hFc (cynomolgus monkey (Macaca fascicularis)); test: as above
T4 construct: also called mfGCGR-N-terminal hFc
Protocol: as §1, §2

hGCGR-hFc [4] = molecular target: T3, hGCGR-hFc; test: SPR Biacore T100, 37C, mAb captured, antigen flowed
Protocol: as §1, §2

hGCGR-mmh [5] = molecular target: T1, hGCGR-mmh; test: as above
Protocol: as §1, §2

mfGCGR-hFc [6] = molecular target: T4, mfGCGR-hFc; test: as above
Protocol: as §1, §2

[7] = molecular target: rat GCGR (full-length, on transiently transfected HEK293 reporter cells) (rat, UniProt P30082 27-485); test: cell-based or functional assay
[8] = molecular target: T2, monkey (Macaca fascicularis) GCGR …; test: cell-based or functional assay
[9] = molecular target: mouse GCGR (full-length, on HEK293 reporter cells) (mouse, UniProt Q61606 27-485); test: cell-based or functional assay
[10] = molecular target: human GCGR (full-length, on HEK293 reporter cells) (human, UniProt P47871 27-477); test: cell-based or functional assay
human GCGR (full-length, on HEK293 reporter cells), sequence (P47871 27-477): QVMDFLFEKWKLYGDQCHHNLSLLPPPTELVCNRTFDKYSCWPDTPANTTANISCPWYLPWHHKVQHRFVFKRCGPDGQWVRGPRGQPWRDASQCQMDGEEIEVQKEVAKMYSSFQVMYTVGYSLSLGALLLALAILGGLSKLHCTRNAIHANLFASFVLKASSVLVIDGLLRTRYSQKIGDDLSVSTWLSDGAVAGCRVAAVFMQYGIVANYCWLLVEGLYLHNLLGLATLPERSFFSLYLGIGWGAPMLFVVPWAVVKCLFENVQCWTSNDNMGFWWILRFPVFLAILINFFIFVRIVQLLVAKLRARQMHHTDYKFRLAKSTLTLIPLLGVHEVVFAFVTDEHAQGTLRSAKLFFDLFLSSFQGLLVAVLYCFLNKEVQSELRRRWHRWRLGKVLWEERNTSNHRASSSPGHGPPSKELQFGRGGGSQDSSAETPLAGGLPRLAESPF

T3 sequence (chain, as listed by the source limits assumed): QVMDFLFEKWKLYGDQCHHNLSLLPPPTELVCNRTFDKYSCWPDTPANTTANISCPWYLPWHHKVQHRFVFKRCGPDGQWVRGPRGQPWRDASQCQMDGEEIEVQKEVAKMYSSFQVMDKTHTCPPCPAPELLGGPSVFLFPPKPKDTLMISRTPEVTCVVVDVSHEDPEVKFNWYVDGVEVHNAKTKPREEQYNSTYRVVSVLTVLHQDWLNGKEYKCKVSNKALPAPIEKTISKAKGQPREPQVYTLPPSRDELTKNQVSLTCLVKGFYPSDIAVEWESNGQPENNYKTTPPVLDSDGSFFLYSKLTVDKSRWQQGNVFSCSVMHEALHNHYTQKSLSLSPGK
rat GCGR (full-length, on transiently transfected HEK293 reporter cells), sequence (P30082 27-485 limits assumed): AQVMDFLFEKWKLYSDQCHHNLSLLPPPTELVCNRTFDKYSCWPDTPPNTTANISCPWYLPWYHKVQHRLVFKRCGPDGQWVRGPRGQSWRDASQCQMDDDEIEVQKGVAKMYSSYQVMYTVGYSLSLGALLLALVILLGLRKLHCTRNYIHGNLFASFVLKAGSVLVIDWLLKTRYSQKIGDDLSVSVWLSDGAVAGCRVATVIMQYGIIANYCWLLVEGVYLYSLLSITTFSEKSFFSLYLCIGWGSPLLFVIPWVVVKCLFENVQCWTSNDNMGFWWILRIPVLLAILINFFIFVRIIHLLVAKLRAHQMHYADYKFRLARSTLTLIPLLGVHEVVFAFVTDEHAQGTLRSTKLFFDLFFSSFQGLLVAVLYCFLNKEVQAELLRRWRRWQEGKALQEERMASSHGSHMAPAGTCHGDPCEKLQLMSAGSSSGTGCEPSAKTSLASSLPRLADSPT
T4 sequence (chain, as listed by the source limits assumed): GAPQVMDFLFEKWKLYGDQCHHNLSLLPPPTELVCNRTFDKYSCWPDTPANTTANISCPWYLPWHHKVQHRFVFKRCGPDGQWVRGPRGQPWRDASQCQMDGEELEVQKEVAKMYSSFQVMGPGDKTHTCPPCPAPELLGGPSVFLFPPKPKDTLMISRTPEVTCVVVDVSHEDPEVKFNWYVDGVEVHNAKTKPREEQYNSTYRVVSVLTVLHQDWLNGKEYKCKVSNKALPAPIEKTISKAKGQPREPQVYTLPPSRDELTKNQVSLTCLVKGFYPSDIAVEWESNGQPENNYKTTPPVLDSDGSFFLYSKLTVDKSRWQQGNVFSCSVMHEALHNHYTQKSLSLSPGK
mouse GCGR (full-length, on HEK293 reporter cells), sequence (Q61606 27-485 limits assumed): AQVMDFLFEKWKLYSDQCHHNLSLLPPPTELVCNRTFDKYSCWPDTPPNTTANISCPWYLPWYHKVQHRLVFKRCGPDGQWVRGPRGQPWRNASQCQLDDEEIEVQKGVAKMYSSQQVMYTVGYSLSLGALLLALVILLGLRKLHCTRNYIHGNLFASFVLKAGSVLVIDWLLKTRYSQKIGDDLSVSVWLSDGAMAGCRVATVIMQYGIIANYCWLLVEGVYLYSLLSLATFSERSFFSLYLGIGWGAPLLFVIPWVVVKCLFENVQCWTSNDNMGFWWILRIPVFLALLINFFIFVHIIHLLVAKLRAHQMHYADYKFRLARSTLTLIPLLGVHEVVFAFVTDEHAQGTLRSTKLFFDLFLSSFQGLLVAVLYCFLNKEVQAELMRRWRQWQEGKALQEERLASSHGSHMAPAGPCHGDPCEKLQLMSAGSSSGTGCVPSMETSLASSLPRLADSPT

Binder | Kd (hGCGR-hFc [1]) | T½ (hGCGR-hFc [1]) | koff (hGCGR-hFc [1]) | kon (hGCGR-hFc [1]) | Kd (hGCGR-mmh [2]) | T½ (hGCGR-mmh [2]) | koff (hGCGR-mmh [2]) | kon (hGCGR-mmh [2]) | Kd (mfGCGR-hFc [3]) | T½ (mfGCGR-hFc [3]) | koff (mfGCGR-hFc [3]) | kon (mfGCGR-hFc [3]) | Kd (hGCGR-hFc [4]) | T½ (hGCGR-hFc [4]) | koff (hGCGR-hFc [4]) | kon (hGCGR-hFc [4]) | Kd (hGCGR-mmh [5]) | T½ (hGCGR-mmh [5]) | koff (hGCGR-mmh [5]) | kon (hGCGR-mmh [5]) | also measured
B1 | 0.0338 nM | 4.7 h | 4.1e-05 s⁻¹ | 1.21e+06 M⁻¹ s⁻¹ | 0.369 nM | 0.55 h | 0.000352 s⁻¹ | 952000 M⁻¹ s⁻¹ | 0.00902 nM | 13.4 h | 1.44e-05 s⁻¹ | 1.6e+06 M⁻¹ s⁻¹ | 0.157 nM | 0.833 h | 0.000232 s⁻¹ | 1.48e+06 M⁻¹ s⁻¹ | 1.35 nM | 0.1 h | 0.002 s⁻¹ | 1.48e+06 M⁻¹ s⁻¹ | Kd (mfGCGR-hFc [6]): 0.0357 nM; T½ (mfGCGR-hFc [6]): 2.42 h; koff (mfGCGR-hFc [6]): 7.94e-05 s⁻¹; kon (mfGCGR-hFc [6]): 2.22e+06 M⁻¹ s⁻¹; IC50, inhibition of 100 pM GCG-stimulated luciferase activity, rat GCGR reporter cells [7]: 0.88 nM; IC50, inhibition of 100 pM GCG-stimulated luciferase activity, mfGCGR reporter cells [8]: 2.56 nM; IC50, inhibition of 100 pM GCG-stimulated luciferase activity, mGCGR reporter cells [9]: 1.04 nM; IC50, inhibition of 100 pM GCG-stimulated luciferase activity, hGCGR reporter cells [10]: 0.39 nM
B2 | 0.201 nM | 0.85 h | 0.000226 s⁻¹ | 1.13e+06 M⁻¹ s⁻¹ | 2.06 nM | 0.0833 h | 0.00212 s⁻¹ | 1.03e+06 M⁻¹ s⁻¹ | 0.0529 nM | 2.28 h | 8.46e-05 s⁻¹ | 1.6e+06 M⁻¹ s⁻¹ | 0.124 nM | 1 h | 0.000192 s⁻¹ | 1.55e+06 M⁻¹ s⁻¹ | 6.67 nM | 0.0167 h | 0.0108 s⁻¹ | 1.61e+06 M⁻¹ s⁻¹ | Kd (mfGCGR-hFc [6]): 0.0353 nM; T½ (mfGCGR-hFc [6]): 2.68 h; koff (mfGCGR-hFc [6]): 7.17e-05 s⁻¹; kon (mfGCGR-hFc [6]): 2.03e+06 M⁻¹ s⁻¹; IC50, inhibition of 100 pM GCG-stimulated luciferase activity, rat GCGR reporter cells [7]: 0.93 nM; IC50, inhibition of 100 pM GCG-stimulated luciferase activity, mfGCGR reporter cells [8]: 2.73 nM; IC50, inhibition of 100 pM GCG-stimulated luciferase activity, mGCGR reporter cells [9]: 1.26 nM; IC50, inhibition of 100 pM GCG-stimulated luciferase activity, hGCGR reporter cells [10]: 0.24 nM
B3 | 0.0202 nM | 12.5 h | 1.54e-05 s⁻¹ | 760000 M⁻¹ s⁻¹ | 0.17 nM | 1.73 h | 0.000111 s⁻¹ | 657000 M⁻¹ s⁻¹ | 0.0069 nM | 23.7 h | 8.12e-06 s⁻¹ | 1.17e+06 M⁻¹ s⁻¹ | 0.0779 nM | 2.12 h | 9.12e-05 s⁻¹ | 1.17e+06 M⁻¹ s⁻¹ | 0.533 nM | 0.367 h | 0.000519 s⁻¹ | 973000 M⁻¹ s⁻¹ | Kd (mfGCGR-hFc [6]): 0.0257 nM; T½ (mfGCGR-hFc [6]): 4.68 h; koff (mfGCGR-hFc [6]): 4.12e-05 s⁻¹; kon (mfGCGR-hFc [6]): 1.6e+06 M⁻¹ s⁻¹; IC50, inhibition of 100 pM GCG-stimulated luciferase activity, rat GCGR reporter cells [7]: 3.87 nM; IC50, inhibition of 100 pM GCG-stimulated luciferase activity, mfGCGR reporter cells [8]: 8.29 nM; IC50, inhibition of 100 pM GCG-stimulated luciferase activity, mGCGR reporter cells [9]: 1.62 nM; IC50, inhibition of 100 pM GCG-stimulated luciferase activity, hGCGR reporter cells [10]: 0.66 nM
B4 | 0.0618 nM | 3.1 h | 6.2e-05 s⁻¹ | 1e+06 M⁻¹ s⁻¹ | 0.825 nM | 0.367 h | 0.000532 s⁻¹ | 645000 M⁻¹ s⁻¹ | 0.0182 nM | 8.43 h | 2.28e-05 s⁻¹ | 1.26e+06 M⁻¹ s⁻¹ | 0.318 nM | 0.517 h | 0.000371 s⁻¹ | 1.17e+06 M⁻¹ s⁻¹ | 4.91 nM | 0.05 h | 0.0043 s⁻¹ | 876000 M⁻¹ s⁻¹ | Kd (mfGCGR-hFc [6]): 0.0631 nM; T½ (mfGCGR-hFc [6]): 1.8 h; koff (mfGCGR-hFc [6]): 0.000107 s⁻¹; kon (mfGCGR-hFc [6]): 1.69e+06 M⁻¹ s⁻¹; IC50, inhibition of 100 pM GCG-stimulated luciferase activity, rat GCGR reporter cells [7]: 0.97 nM; IC50, inhibition of 100 pM GCG-stimulated luciferase activity, mfGCGR reporter cells [8]: 2.85 nM; IC50, inhibition of 100 pM GCG-stimulated luciferase activity, mGCGR reporter cells [9]: 1.6 nM; IC50, inhibition of 100 pM GCG-stimulated luciferase activity, hGCGR reporter cells [10]: 0.46 nM
B5 | 0.238 nM | 0.683 h | 0.000285 s⁻¹ | 1.2e+06 M⁻¹ s⁻¹ | 3.54 nM | 0.05 h | 0.00374 s⁻¹ | 1.06e+06 M⁻¹ s⁻¹ | 0.0238 nM | 4.6 h | 4.18e-05 s⁻¹ | 1.76e+06 M⁻¹ s⁻¹ | 0.077 nM | 1.77 h | 0.000109 s⁻¹ | 1.41e+06 M⁻¹ s⁻¹ | 12.8 nM | 0.0167 h | 0.0202 s⁻¹ | 1.58e+06 M⁻¹ s⁻¹ | Kd (mfGCGR-hFc [6]): 0.0347 nM; T½ (mfGCGR-hFc [6]): 2.53 h; koff (mfGCGR-hFc [6]): 7.59e-05 s⁻¹; kon (mfGCGR-hFc [6]): 2.19e+06 M⁻¹ s⁻¹; IC50, inhibition of 100 pM GCG-stimulated luciferase activity, rat GCGR reporter cells [7]: 1.21 nM; IC50, inhibition of 100 pM GCG-stimulated luciferase activity, mfGCGR reporter cells [8]: 4.03 nM; IC50, inhibition of 100 pM GCG-stimulated luciferase activity, mGCGR reporter cells [9]: 1.13 nM; IC50, inhibition of 100 pM GCG-stimulated luciferase activity, hGCGR reporter cells [10]: 0.27 nM

— patent publication US20130251728A1 (Regeneron, published 2013)
